Tests used:
EPHB2 = EPHB2 (UniProt P29323); experiment: phosphorylation enrichment, bacterial display (enrichment ratio); higher = better substrate or ligand; peptides without Tyr show the background
MERTK = MERTK (UniProt Q12866); experiment: as above
Hck = Hck (UniProt P08631); experiment: as above
FGFR1 = FGFR1 (UniProt P11362); experiment: as above
Fyn = Fyn (UniProt P06241); experiment: as above
Jak2 = Jak2 (UniProt O60674); experiment: as above
EPHB1 = EPHB1 (UniProt P54762); experiment: as above
c-Abl (mouse) = experiment: as above
Fer (mouse) = experiment: as above
AncSZ = experiment: as above
c-Src = experiment: as above
Fes = Fes (UniProt P07332); experiment: as above
Chain of Fes (P07332 whole entry, looked up): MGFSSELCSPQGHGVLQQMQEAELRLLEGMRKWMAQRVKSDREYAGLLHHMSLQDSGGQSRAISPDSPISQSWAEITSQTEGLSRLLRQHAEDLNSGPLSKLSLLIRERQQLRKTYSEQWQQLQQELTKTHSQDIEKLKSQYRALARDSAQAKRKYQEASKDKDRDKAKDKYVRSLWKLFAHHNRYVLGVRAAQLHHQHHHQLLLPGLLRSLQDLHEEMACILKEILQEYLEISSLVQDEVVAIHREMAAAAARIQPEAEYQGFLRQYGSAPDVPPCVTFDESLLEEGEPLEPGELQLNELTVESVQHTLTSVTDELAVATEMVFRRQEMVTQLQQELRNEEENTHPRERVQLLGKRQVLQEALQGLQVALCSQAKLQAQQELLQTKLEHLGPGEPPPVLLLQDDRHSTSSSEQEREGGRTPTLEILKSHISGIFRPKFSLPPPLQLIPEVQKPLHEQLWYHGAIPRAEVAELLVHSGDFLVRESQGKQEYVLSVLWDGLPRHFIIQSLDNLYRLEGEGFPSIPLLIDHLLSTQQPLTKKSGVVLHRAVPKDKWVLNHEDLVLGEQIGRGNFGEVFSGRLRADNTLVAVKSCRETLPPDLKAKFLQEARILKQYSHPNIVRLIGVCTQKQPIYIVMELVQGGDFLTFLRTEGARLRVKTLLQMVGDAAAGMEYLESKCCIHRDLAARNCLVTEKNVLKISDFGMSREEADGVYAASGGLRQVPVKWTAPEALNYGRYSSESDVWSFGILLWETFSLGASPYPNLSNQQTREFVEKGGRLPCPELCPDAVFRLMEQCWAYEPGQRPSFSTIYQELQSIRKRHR

FGFR3 = FGFR3 (UniProt P22607); experiment: as above
Chain of FGFR3 (P22607 whole entry, looked up): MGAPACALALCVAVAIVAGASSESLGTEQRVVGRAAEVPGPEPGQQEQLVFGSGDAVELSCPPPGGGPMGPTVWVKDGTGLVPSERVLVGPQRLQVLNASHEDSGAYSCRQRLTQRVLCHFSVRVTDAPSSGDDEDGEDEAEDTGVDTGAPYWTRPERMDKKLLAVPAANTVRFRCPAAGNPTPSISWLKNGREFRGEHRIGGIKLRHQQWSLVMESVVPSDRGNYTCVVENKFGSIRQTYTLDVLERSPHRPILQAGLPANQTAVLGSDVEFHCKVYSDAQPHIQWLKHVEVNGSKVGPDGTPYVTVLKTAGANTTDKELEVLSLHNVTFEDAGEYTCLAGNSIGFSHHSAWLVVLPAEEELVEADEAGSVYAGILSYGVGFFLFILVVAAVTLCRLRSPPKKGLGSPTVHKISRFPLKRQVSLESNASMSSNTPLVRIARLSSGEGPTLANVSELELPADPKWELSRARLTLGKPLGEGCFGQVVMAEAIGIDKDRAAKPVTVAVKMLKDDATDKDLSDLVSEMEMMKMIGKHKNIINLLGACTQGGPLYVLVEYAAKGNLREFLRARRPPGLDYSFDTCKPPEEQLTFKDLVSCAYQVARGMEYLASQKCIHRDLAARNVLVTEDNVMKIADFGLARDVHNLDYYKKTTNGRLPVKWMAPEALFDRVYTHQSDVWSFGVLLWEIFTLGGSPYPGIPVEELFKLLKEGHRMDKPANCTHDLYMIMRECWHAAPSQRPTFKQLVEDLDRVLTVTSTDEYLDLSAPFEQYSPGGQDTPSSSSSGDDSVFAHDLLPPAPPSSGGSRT

c-Src SH2 = experiment: SH2 binding enrichment of the phosphorylated peptide, bacterial display (enrichment ratio); higher = better substrate or ligand; peptides without Tyr show the background
SHP2-C SH2 = experiment: as above
Grb2 SH2 = Grb2 SH2 (UniProt P62993); experiment: as above
Chain of Grb2 SH2 (P62993 whole entry, looked up, the tested form may be a part): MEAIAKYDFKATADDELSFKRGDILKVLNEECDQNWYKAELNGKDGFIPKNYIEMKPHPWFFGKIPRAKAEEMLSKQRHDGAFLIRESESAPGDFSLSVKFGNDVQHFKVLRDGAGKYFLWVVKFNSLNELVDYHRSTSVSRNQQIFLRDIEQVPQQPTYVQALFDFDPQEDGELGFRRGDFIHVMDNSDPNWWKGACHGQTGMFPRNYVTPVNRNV
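Wherever SH2 binding enrichment of the phosphorylated peptide, bacterial display is given: peptide library displayed on the E. coli surface as eCPX fusions, selected cells deep-sequenced, score is each peptide's frequency after selection divided by its frequency in the input.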
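Wherever phosphorylation enrichment, bacterial display is given: 11-residue human phosphosite peptides and single-mutation variants displayed on the E. coli surface, counted by deep sequencing, each peptide's frequency after selection divided by its frequency in the unselected input library; frequency after pTyr selection over input frequency; kinase dosed for 20-30% of maximal phosphorylation in three min.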

Chain of Hck (P08631 whole entry, looked up): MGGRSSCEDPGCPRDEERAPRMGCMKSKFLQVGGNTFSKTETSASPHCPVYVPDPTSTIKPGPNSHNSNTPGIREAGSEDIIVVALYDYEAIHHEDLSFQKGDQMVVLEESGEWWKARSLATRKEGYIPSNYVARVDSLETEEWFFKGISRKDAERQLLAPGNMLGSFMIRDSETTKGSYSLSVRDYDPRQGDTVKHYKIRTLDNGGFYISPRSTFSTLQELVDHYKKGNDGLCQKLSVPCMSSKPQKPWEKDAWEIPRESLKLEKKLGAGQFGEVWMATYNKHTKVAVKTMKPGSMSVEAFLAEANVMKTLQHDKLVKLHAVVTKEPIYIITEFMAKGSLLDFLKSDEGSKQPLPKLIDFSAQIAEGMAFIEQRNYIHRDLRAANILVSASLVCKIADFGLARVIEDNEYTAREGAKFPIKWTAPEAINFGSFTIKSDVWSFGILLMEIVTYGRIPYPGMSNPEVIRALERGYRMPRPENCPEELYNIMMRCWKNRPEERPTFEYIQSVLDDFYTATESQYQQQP
Chain of EPHB2 (P29323 whole entry, looked up): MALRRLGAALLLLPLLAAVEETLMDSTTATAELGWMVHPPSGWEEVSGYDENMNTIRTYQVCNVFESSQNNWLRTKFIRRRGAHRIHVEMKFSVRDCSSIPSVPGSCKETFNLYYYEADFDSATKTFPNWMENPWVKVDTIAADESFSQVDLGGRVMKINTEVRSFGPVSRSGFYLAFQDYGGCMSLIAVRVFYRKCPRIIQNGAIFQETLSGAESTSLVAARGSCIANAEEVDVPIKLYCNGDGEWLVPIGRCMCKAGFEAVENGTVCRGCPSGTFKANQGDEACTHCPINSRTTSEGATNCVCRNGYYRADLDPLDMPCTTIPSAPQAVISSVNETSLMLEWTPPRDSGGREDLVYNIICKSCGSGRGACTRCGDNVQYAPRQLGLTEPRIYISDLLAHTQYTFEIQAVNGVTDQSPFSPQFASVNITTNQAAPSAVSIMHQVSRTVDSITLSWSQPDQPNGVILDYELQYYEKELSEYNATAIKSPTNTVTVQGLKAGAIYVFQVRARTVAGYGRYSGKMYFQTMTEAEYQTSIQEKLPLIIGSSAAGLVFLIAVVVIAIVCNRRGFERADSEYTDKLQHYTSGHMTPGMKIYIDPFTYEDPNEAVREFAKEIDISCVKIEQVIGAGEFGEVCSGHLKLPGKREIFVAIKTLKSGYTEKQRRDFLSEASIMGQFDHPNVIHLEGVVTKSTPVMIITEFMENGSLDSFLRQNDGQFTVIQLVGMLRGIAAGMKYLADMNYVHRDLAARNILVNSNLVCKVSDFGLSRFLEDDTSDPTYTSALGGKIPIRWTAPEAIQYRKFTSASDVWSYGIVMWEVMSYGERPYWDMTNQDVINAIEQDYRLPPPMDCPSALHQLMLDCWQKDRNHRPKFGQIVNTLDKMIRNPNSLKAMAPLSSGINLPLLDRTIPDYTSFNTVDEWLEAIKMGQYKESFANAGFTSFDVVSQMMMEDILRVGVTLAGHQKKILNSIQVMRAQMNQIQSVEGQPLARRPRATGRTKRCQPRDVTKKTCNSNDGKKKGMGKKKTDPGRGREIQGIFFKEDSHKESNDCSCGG
Chain of Jak2 (O60674 whole entry, looked up): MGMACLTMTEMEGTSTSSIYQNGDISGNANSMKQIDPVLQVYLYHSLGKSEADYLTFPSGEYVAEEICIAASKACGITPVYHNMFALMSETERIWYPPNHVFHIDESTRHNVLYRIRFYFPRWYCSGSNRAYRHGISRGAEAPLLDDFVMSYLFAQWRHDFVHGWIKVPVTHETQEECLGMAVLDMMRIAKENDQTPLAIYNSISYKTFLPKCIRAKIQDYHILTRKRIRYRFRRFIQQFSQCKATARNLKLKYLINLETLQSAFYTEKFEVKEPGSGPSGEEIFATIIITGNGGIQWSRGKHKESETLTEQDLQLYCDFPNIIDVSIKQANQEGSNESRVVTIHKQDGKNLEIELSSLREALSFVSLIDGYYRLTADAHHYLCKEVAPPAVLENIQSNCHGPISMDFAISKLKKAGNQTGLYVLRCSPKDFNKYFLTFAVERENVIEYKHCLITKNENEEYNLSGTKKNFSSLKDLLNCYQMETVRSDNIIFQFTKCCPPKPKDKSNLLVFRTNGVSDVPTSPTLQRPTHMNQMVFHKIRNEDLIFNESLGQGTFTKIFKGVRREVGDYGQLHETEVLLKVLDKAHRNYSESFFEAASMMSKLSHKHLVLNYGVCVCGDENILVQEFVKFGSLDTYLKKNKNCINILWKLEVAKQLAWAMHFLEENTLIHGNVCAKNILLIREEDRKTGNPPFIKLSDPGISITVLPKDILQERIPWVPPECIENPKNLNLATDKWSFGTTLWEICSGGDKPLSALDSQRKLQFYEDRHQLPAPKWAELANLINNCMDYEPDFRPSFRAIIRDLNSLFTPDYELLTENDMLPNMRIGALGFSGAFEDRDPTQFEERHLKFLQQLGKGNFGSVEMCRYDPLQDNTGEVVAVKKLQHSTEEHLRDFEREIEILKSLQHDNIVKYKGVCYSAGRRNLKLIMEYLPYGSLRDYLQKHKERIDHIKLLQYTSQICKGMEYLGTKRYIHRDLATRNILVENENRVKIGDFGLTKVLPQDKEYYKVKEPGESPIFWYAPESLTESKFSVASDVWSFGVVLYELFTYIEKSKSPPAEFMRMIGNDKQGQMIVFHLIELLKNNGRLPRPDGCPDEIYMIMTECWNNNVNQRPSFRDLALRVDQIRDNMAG

Sequence | phosphorylation enrichment (EPHB2) | phosphorylation enrichment (MERTK) | phosphorylation enrichment (Hck) | phosphorylation enrichment (FGFR1) | phosphorylation enrichment (Fyn) | phosphorylation enrichment (Jak2) | phosphorylation enrichment (EPHB1) | phosphorylation enrichment (c-Abl (mouse)) | phosphorylation enrichment (Fer (mouse)) | phosphorylation enrichment (AncSZ) | phosphorylation enrichment (c-Src) | phosphorylation enrichment (Fes) | phosphorylation enrichment (FGFR3) | SH2 binding enrichment (c-Src SH2) | SH2 binding enrichment (SHP2-C SH2) | SH2 binding enrichment (Grb2 SH2)
AAVLNYKAGRD [GRIN2A_Y737] | 0.33 | 0.41 | 0.322 | 0.382 | 0.397 | 0.469 | 0.352 | 0.389 | 0.342 | 0.461 | 0.432 | 0.482 | 0.379 | 0.447 | 0.44 | 0.835
DQVEQCKKELE [LMNA_Y259_Y259C] | 0.625 | 0.49 | 0.703 | 0.528 | 0.52 | 1.1 | 0.59 | 0.746 | 0.518 | 1.2 | 0.562 | 1.27 | 0.733 | 0.524 | 0.937 | 0.79
DPNQQYYIAMD [TBX15_Y159_H156N] | 0.719 | 1.65 | 0.613 | 3.98 | 0.566 | 0.959 | 0.875 | 0.571 | 0.487 | 1.12 | 0.812 | 0.992 | 2.95 | 1.44 | 0.628 | 0.881
FVTSMYNEILI [TRPV1_Y310_M315I] | 0.714 | 1.17 | 1.14 | 0.733 | 0.682 | 1.01 | 0.684 | 0.686 | 6.66 | 1.16 | 0.621 | 1.32 | 0.903 | 4.5 | 1.09 | 0.929
GDKKAYVRLAP [RPL23A_Y137_E133D] | 0.435 | 0.638 | 0.482 | 0.535 | 0.43 | 0.732 | 0.523 | 0.519 | 0.411 | 0.603 | 0.449 | 0.58 | 0.497 | 0.54 | 0.757 | 0.831
PPTYRYERGSR [INPPL1_Y663] | 0.442 | 0.465 | 0.533 | 0.56 | 0.449 | 0.286 | 0.302 | 0.61 | 0.22 | 0.509 | 0.39 | 0.616 | 0.419 | 0.426 | 0.363 | 0.613
HTLIKYTDGDQ [PUS7L_Y94] | 0.982 | 1.16 | 1.01 | 1.33 | 1.89 | 1.75 | 0.819 | 1.35 | 0.64 | 1.41 | 1.09 | 1.76 | 1.14 | 0.464 | 0.606 | 0.914
ARVDTYCRHNF [HLA-DRB1_Y107_A103R_YF] | 0.494 | 0.486 | 0.45 | 0.443 | 0.439 | 0.731 | 0.41 | 0.677 | 0.433 | 0.7 | 0.496 | 0.992 | 0.53 | 0.757 | 0.743 | 1.01
ERDYTYEELLN [EIF2S2_Y176] | 0.718 | 0.426 | 1.32 | 0.579 | 0.886 | 1.18 | 0.78 | 0.67 | 0.65 | 1.31 | 0.807 | 1.28 | 0.855 | 1.1 | 0.737 | 0.823
LVSCAYQVARG [FGFR1_Y605] | 0.612 | 0.424 | 0.609 | 0.462 | 0.487 | 0.657 | 0.61 | 0.641 | 0.505 | 0.867 | 0.577 | 0.89 | 0.577 | 0.644 | 0.728 | 0.883
FTAVGYHKHIT [NOMO1_Y1137] | 0.414 | 0.33 | 0.482 | 0.485 | 0.432 | 0.524 | 0.382 | 0.569 | 0.48 | 0.649 | 0.312 | 0.685 | 0.614 | 0.849 | 1.62 | 1.02
RGDCTYAPLLG [AR_Y269_M268T] | 9.28 | 7.45 | 9.33 | 1.42 | 8.94 | 1.18 | 8.38 | 2.55 | 1.33 | 1.21 | 6.35 | 1.46 | 1.26 | 0.896 | 0.594 | 0.88
DHTVNYVLKCR [PLEKHG4_Y1068_R1064H] | 0.677 | 0.419 | 0.532 | 0.602 | 0.479 | 1.09 | 0.699 | 0.859 | 0.512 | 1.18 | 0.409 | 1.38 | 0.855 | 0.346 | 0.63 | 0.67
DDEESYENVPR [FCRL3_Y722_N721S] | 0.548 | 0.47 | 0.481 | 0.475 | 0.516 | 1.06 | 0.466 | 0.687 | 0.427 | 1.12 | 0.462 | 0.969 | 0.666 | 0.672 | 0.77 | 0.935
FADGVYLALEE [DUOX2_Y70_Q71L_YF] | 0.991 | 0.641 | 1.51 | 0.881 | 2.15 | 0.968 | 1.19 | 0.647 | 0.584 | 1.63 | 2.47 | 1.04 | 1.02 | 0.558 | 0.623 | 0.849
CEHRGFLYLAI [TEK_Y897_Y897F] | 0.466 | 0.442 | 0.453 | 0.419 | 0.372 | 0.801 | 0.464 | 0.947 | 0.545 | 0.971 | 0.564 | 1.16 | 0.698 | 0.883 | 1.14 | 1.47
QGGRRYMMIVD [GAA_Y438] | 0.508 | 0.42 | 0.354 | 0.413 | 0.655 | 0.568 | 0.487 | 0.543 | 0.692 | 0.606 | 0.403 | 0.574 | 0.367 | 3.68 | 0.776 | 0.965

Sequence | phosphorylation enrichment (EPHB2) | phosphorylation enrichment (MERTK) | phosphorylation enrichment (Hck) | phosphorylation enrichment (FGFR1) | phosphorylation enrichment (Fyn) | phosphorylation enrichment (Jak2) | phosphorylation enrichment (EPHB1) | phosphorylation enrichment (c-Abl (mouse)) | phosphorylation enrichment (Fer (mouse)) | phosphorylation enrichment (AncSZ) | phosphorylation enrichment (c-Src) | phosphorylation enrichment (Fes) | phosphorylation enrichment (FGFR3) | SH2 binding enrichment (c-Src SH2) | SH2 binding enrichment (SHP2-C SH2) | SH2 binding enrichment (Grb2 SH2)
ESMQSYDLDFP [UNC13B_Y243_D238E_YF] | 0.5 | 0.441 | 0.46 | 0.568 | 0.51 | 0.777 | 0.459 | 0.538 | 0.506 | 0.909 | 0.49 | 1.04 | 0.63 | 0.648 | 0.534 | 0.824
NTYEKYWLFYQ [GATM_Y103_P105L] | 2.94 | 1.78 | 1.36 | 1.7 | 1.5 | 1.18 | 4.77 | 0.8 | 0.874 | 1.26 | 2.23 | 1.39 | 1.65 | 0.807 | 1.12 | 0.788
SPPILYSFYLD [FCRL6_Y239] | 4.22 | 8.22 | 1.57 | 1.42 | 2.03 | 0.775 | 3.28 | 0.736 | 1.37 | 1.31 | 2.74 | 1.05 | 0.924 | 0.882 | 1.14 | 1.28
HSQEDYFECFQ [ZIM2_Y411] | 1.2 | 0.624 | 0.623 | 10.2 | 0.669 | 1.25 | 2.03 | 0.902 | 0.614 | 3.08 | 0.79 | 1.82 | 8.51 | 0.531 | 0.6 | 0.639
SQETFYRVSNM [ABCD1_Y181_Q178E_YF] | 0.528 | 0.448 | 0.457 | 0.386 | 0.396 | 0.7 | 0.412 | 0.86 | 0.443 | 0.61 | 0.49 | 0.763 | 0.473 | 0.597 | 0.807 | 0.836
PQGVGYPQQQQ [EP300_Y2219_P2221Q] | 0.435 | 0.4 | 0.546 | 0.448 | 0.608 | 0.713 | 0.591 | 0.599 | 0.441 | 0.87 | 0.475 | 0.921 | 0.604 | 0.249 | 0.835 | 0.588
CCKNRYDKDKP [THAP1_Y14_G9C] | 0.28 | 0.486 | 0.384 | 0.465 | 0.33 | 0.429 | 0.29 | 0.381 | 0.345 | 0.455 | 0.345 | 0.5 | 0.419 | 0.542 | 0.686 | 1.01
FGISGYLVDSV [MAP2K3_Y214] | 0.501 | 0.459 | 0.471 | 0.478 | 0.467 | 0.97 | 0.377 | 0.722 | 0.529 | 0.982 | 0.504 | 1.2 | 0.631 | 0.656 | 0.883 | 0.949
TGSFTCEAVEL [MTMR14_Y462_Y462C] | 0.659 | 0.419 | 0.573 | 0.529 | 0.65 | 0.892 | 0.661 | 0.77 | 0.619 | 1.19 | 0.483 | 1.24 | 0.811 | 0.576 | 0.676 | 0.888
RRESQYQENRG [LRCH3_Y354] | 0.494 | 0.472 | 0.503 | 0.479 | 0.637 | 0.582 | 0.431 | 0.73 | 0.563 | 0.835 | 0.475 | 0.571 | 0.663 | 0.49 | 0.624 | 0.982
KSNSDYVDVLP [SH2D1B_Y127_N122K] | 1.45 | 0.43 | 0.477 | 2.42 | 0.419 | 0.705 | 3.1 | 0.531 | 0.583 | 1.11 | 0.449 | 0.887 | 1.68 | 0.475 | 0.479 | 0.757
NTYEKYLGEEY [TF_Y669] | 0.74 | 0.382 | 0.688 | 0.472 | 0.974 | 0.99 | 0.601 | 0.935 | 0.523 | 1.12 | 1.03 | 1.06 | 0.756 | 2.41 | 0.722 | 0.971
TAPYNYSYIFK [RAB14_Y8] | 3.26 | 6.78 | 1.14 | 1.74 | 0.354 | 0.561 | 9.69 | 0.717 | 1.59 | 1.03 | 0.772 | 0.735 | 1.21 | 13.7 | 1.79 | 1.4
KPGVNYYFRVS | 0.739 | 0.392 | 0.423 | 0.623 | 0.368 | 1.16 | 0.534 | 0.732 | 0.483 | 1.15 | 0.385 | 1.37 | 0.7 | 0.624 | 0.977 | 0.755
PLFKICVAELI [MRPL28_Y230_Y230C] | 0.888 | 0.469 | 0.692 | 0.499 | 0.73 | 1.31 | 1.06 | 0.718 | 0.707 | 1.2 | 0.394 | 1.57 | 1.14 | 0.496 | 0.829 | 0.926
INSLKYAFNIS [EIF2B5_Y583_YF] | 0.475 | 0.349 | 0.424 | 0.451 | 0.311 | 0.809 | 0.438 | 0.632 | 0.385 | 0.722 | 0.379 | 0.818 | 0.567 | 0.44 | 0.833 | 0.944
